Laboratory results from publication PMC5561112, “Thermodynamic and Kinetic Analyses of Iron Response Element (IRE)-mRNA Binding to Iron Regulatory Protein, IRP1”.

T1: IRP1 (iron regulatory protein 1) (rabbit, UniProt Q01059 1-889)
T1 sequence: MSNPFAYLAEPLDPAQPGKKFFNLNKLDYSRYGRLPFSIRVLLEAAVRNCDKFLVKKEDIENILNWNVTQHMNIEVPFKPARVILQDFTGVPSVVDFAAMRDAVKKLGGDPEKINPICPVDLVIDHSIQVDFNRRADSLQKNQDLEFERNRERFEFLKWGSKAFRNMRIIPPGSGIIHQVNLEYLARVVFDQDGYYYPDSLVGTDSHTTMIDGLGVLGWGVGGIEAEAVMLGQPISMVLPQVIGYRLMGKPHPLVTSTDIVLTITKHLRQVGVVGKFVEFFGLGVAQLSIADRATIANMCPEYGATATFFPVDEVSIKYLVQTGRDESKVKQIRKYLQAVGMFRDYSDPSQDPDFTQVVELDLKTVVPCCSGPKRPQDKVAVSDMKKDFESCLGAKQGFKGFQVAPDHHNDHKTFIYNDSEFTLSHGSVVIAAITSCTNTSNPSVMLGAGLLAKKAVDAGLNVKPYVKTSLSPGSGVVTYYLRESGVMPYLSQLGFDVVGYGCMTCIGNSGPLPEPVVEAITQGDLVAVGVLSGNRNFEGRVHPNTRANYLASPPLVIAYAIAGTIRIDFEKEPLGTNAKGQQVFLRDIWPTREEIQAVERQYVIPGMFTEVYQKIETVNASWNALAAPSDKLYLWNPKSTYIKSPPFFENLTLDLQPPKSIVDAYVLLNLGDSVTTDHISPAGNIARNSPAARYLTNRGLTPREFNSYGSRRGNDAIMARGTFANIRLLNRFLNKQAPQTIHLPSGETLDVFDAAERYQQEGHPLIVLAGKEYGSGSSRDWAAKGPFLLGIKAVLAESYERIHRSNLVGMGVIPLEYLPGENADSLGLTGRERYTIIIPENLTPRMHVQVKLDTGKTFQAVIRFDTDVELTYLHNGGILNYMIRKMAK


Legend:
Details in all cases: protein: recombinant; label: 5' fluorescein; hairpin
[1] = molecular target: T1, IRP1 (iron regulatory protein 1); assay: fluorescence anisotropy; 5 °C, no Mn2+; 40 mM HEPES pH 7.2, 100 mM KCl, 5-30 °C, ±50 µM Mn2+; labeled RNA 50 nM or 100 nM (Methods)
[2] = molecular target: T1, IRP1 (iron regulatory protein 1); assay: fluorescence anisotropy; 10 °C, no Mn2+; 40 mM HEPES pH 7.2, 100 mM KCl, 5-30 °C, ±50 µM Mn2+; labeled RNA 50 nM or 100 nM (Methods)
[3] = molecular target: T1, IRP1 (iron regulatory protein 1); assay: fluorescence anisotropy; 15 °C, no Mn2+; 40 mM HEPES pH 7.2, 100 mM KCl, 5-30 °C, ±50 µM Mn2+; labeled RNA 50 nM or 100 nM (Methods)
[4] = molecular target: T1, IRP1 (iron regulatory protein 1); assay: fluorescence anisotropy; 20 °C, no Mn2+; 40 mM HEPES pH 7.2, 100 mM KCl, 5-30 °C, ±50 µM Mn2+; labeled RNA 50 nM or 100 nM (Methods)
[5] = molecular target: T1, IRP1 (iron regulatory protein 1); assay: fluorescence anisotropy; 25 °C, no Mn2+; 40 mM HEPES pH 7.2, 100 mM KCl, 5-30 °C, ±50 µM Mn2+; labeled RNA 50 nM or 100 nM (Methods)
[6] = molecular target: T1, IRP1 (iron regulatory protein 1); assay: fluorescence anisotropy; 30 °C, no Mn2+; 40 mM HEPES pH 7.2, 100 mM KCl, 5-30 °C, ±50 µM Mn2+; labeled RNA 50 nM or 100 nM (Methods)

Row | Binder | Kd [1] | Kd [2] | Kd [3] | Kd [4] | Kd [5] | Kd [6]
1 | GUUCUUGCUUCAACAGUGUUUGAACGGAAC (structured_RNA) [FRT IRE-RNA (ferritin IRE)] | 4.6 ± 0.2 nM | 7 ± 0.2 nM | 8.6 ± 0.3 nM | 11.7 ± 0.4 nM | 14.2 ± 0.3 nM | 19.2 ± 0.4 nM
2 | CCUCAUCUUUGUCAGUGCACAAAAUGGCG (structured_RNA) [ACO2 IRE-RNA (mitochondrial aconitase IRE)] | 55.9 ± 3 nM | 69.6 ± 5 nM | 89 ± 3 nM | 101 ± 7 nM | 129 ± 3.3 nM | 155 ± 4 nM
